Results from PMC9129000, “RADA-dependent branch migration has a predominant role in plant mitochondria and its defect leads to mtDNA instability and cell cycle arrest”.

Assays:
[1] = target: Arabidopsis RADA recombinant protein (His-tagged, WT) (Arabidopsis thaliana); test: dynamic light scattering; protein fraction of gel filtration peak 2 (the smaller oligomer)
RADA [2] = target: T1, RADA (Arabidopsis thaliana, UniProt F4K8X8 49-627); test: EMSA; 20 mM Tris-HCl pH 7.5, 50 mM KCl, 5 mM MgCl2, 0.5 mM EDTA, 10% glycerol, 1 mM DTT, protease inhibitors; 20 C, 20 min; 8 or 4.5% PAGE in TBE at 4 C; details: protein: recombinant; tags: N-terminal His (pET28a); chain copies: 6; label: 5'-32P; single strand
T1 sequence: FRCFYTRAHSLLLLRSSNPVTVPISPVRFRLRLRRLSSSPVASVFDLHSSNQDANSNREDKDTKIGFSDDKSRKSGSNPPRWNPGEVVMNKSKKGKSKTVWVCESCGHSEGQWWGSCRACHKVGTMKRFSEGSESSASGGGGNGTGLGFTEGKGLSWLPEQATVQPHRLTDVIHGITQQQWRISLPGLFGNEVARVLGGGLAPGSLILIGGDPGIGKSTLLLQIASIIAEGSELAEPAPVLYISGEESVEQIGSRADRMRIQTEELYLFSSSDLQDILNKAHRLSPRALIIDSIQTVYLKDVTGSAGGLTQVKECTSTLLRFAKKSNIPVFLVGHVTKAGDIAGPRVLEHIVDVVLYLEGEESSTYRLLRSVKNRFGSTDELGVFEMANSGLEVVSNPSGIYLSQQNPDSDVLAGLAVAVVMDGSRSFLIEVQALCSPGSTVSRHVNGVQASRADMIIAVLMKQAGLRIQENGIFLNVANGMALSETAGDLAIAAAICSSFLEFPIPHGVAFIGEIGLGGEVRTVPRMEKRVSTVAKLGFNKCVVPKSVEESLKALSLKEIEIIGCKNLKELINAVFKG

RADA [3] = target: T1, RADA; test: EMSA; probe and homologous competitor; 20 mM Tris-HCl pH 7.5, 50 mM KCl, 5 mM MgCl2, 0.5 mM EDTA, 10% glycerol, 1 mM DTT, protease inhibitors; 20 C, 20 min; 8 or 4.5% PAGE in TBE at 4 C; details: protein: recombinant; tags: N-terminal His (pET28a); chain copies: 6; label: 5'-32P as probe; single strand
RADA [4] = target: T1, RADA; test: competition; competes as efficiently as homologous 30-mer; 20 mM Tris-HCl pH 7.5, 50 mM KCl, 5 mM MgCl2, 0.5 mM EDTA, 10% glycerol, 1 mM DTT, protease inhibitors; 20 C, 20 min; 8 or 4.5% PAGE in TBE at 4 C; details: protein: recombinant; tags: N-terminal His (pET28a); chain copies: 6; single strand

Arabidopsis RADA recombinant protein (His-tagged, WT) (enzyme)
stoichiometry N [1]: 6

B1: EMSA ssDNA (ssDNA)
DNA: GACGCTGCCGAATTCTACCAGTGCCTTGCTAGGACATCTTTGCCCACCTGCAGGTTCACCC
binding result (RADA [2]): binds

B2: EMSA 30-mer 7x[AGTC]AG (ssDNA)
DNA: AGTCAGTCAGTCAGTCAGTCAGTCAGTCAG
binding result (RADA [3]): binds

B3: poly-dT 30-mer (ssDNA)
DNA: TTTTTTTTTTTTTTTTTTTTTTTTTTTTTT
binding result (RADA [4]): binds
